Assay: label from the status in PepcDB records

MASFQQYKTKTGYKWLFKMGVGIDPKTGNRKTTTRRGFKTKKEAVAAAAEFQKEIDNNALARNDITFEDVFKEWWDVHSKTIKRSTRYRKLSNFKKHILPHFGKLKIKDITRAYCQKVINLIAQDIDSVQNVKIQANLVFKYALRMEYITKNPMEFVVIPKKEENFLSQEEEKRNFWEKDEIKTFLEKAHSQLAPQDYVMFYVLIFTGMRKGELIALEWKDVDLKEKTINIKQTMFFENGKEVIQTTKKYHSKRIITIDDQTAQILKKWRTQQKEMLLSNGITSEAKYVLIRGDMRPLRLAYPNDLLNRMITKNKLHRITIHGFRHSHASILFEAGASIKEVQARLGHKEIQTTMNIYTHVTKTAKAKTAETFKKYMEL
protein production: failed

MASFVESGWQYLVTHFSDFQLACIGSFLLHESVFFLSGLPFIFLERQGFLSKYKIQTKNNTPAAQGKCITRLLLYHFSVNLPLMLASYPVFRAMGMRSSFPLPSWKEVSAQILFYFIIEDFVFYWGHRILHSKWLYKNVHSVHHEYATPFGLTSEYAHPAEILFLGFATIVGPALTGPHLITLWLWMVLRVLETVEAHCGYHFPWSLSNFLPLYGGADFHDYHHRLLYTKSGNYSSTFVYMDWIFGTDKGYRRLKTLKENGDMKQT
protein production: failed

MASGSPPSQPSPASGSGYVPGSVSAAFVTCPNEKVAKEIARAVVEKRLAACVNLIPQITSIYEWKGKIEEDSEVLMMIKTQSSLVPALTEFVRSVHPYEVAEVIALPVEQGNPPYLHWVHQVTESV
protein production: not failed

MASIVMLLRALMSCRLTPKDEPETSDSSSSAAKLYRNIVGDENVTRKRISVVDTSHLGDNHEFIIETTCGSNDMDEGFYWIIVRNHLM
protein production: failed

MASKEAHVSLARGEQSVKRIKEFDPGKDSFSVLLLGIDAREKNGETVDQARSDANVLVTFNRKEKTAKMLSIPRDAYVNIPGHGYDKFTHAHAYGGVDLTVKTVEEMLDIPVDYVVESNFTAFEDVVNELNGVKVTVKSDKVIQQIKKDTKGKVVLQKGTHTLDGEEALAYVRTRKADSDLLRGQRQMEVLSAIIDKSKSLSSIPAYDDIVDTMGQNLKMNLSLKDAIGLFPFITSLKSVESIQLTGYDYEPAGVYYFKLNQQKLQEVKKELQNDLGVLEHHHHHH
protein production: not failed

MASKKPDKTYEEMVKEVERLKLENKTLKQKVKSSGAVSSDDSILTAAKRESIIVSSSRALGAVAMRKIEAKVRSRAAKAVTEQELTSLLQSLTLRVDVSMEELEHHHHHH
protein production: not failed

MASLAFIQAFLESFKGFLSQATLISVLIASVLILFCAILLLLALLLRNRLASYIATAAFLGAFLSMPFVLNILLTQAIYPIETRILHANPLSYSNAFSLQVGVKNHSKFTLNKCVLRLEVLKNPHNFVEEHAFKWFVKKSYEKIFKEKILPKESKVFSFFIDNYPYSKTAPYQVSLFCL
protein production: failed

MASLGFNLGFTFSNAQIQQHRKVSGGGRARVISCNSSSSSSSQASSPQGISAVTPLEIELEFFGPKPGSDGSYPVDKAKAVSGDKLLRSIMQDNKIELYAAYGKVMNCGGGGSCGTCIVEILDGRDLLNERTDTENRYLKKKPESWRLACQTIVGNKENSGKSALDIGCRAADSTVEEVN
protein production: failed

MASLGSAAAGEPATGAEAEPGPPAPPPPPPPPPAPSPSALGPLLPLQREPLYNWQATKASLKERFAFLFNSELLSDVRFVLGKGRGAAAAGGPQRIPAHRFVLAAGSAVFDAMFNGGMATTSAEIELPDVEPAAFLALLRFLYSDEVQIGPETVMTTLYTAKKYAVPALEAHCVEFLTKHLRADNAFMLLTQARLFDEPQLASLCLDTIDKSTVDAISAEGFTDIDIDTLCAVLERDTLSIRESRLFGAIVRWAEAECQRQQLAVTFGNKQKVLGKALSLIRFPLMTIEEFAAGPAQSGILSDREVVNLFLHFTVNPKPRVEYIDRPRCCLRGKECCINRFQQVESRWGYSGTSDRIRFTVNRRISVVGFGLYGSIHGPTDYQVNIQIIEYEKKQTLGQNDTGFSCDGTANTFRVMFKEPIEILPNVCYTACATLKGPDSHYGTKGLKKVVHETPAASKTVFLFFSSPGNNNGTSIEDGQIPEIIFYT
protein production: failed

MASMTMTSSFLPTVSNLPANISSNSRRSLTVVKASGSENTTSLENKKQEQSMKMRRDLVFTAAAAAVCSLAKVAMADDEPKRGTEAAKKKYAPVCVTMPTAKICRN
protein production: failed

Reference: a protein production outcome set (Wang et al. 2014)
